Data: the nanobody polyreactivity screen of Harvey et al. (2022)

assay: yeast display, Sf9 membrane polyspecificity reagent, FACS + sequencing; frameworks hold sequencing errors
In short: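 Polyreactivity labels are assigned by the sorting gate from which each nanobody was recovered. The gates were low and high (top ~1%), set on anti-HA fluorescence for expression and streptavidin fluorescence for reagent binding. Before sorting, galactose-induced (36–48 hours) yeast display cells were stained for 1 hour at 4 °C with 10% biotinylated, detergent-solubilized Sf9 membrane reagent.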

Sequence	polyreactivity (PSR sort gate)
QVQLVESGGGLVQAGGSLRLSCAASGYIFKVNSMGWYRPAPGKERELDADISSNSGSTRYADSVKARFTISRDNAKNTVYLQMNSLKQDDTAVYYCAADGRYWVKPGSPWDRSRYDYWGQGTQVTVSS	low polyreactivity
QVQLVESGGGLVQAGGSLRLSCAASGFTFDENAMGWYRQAPGINYSGASTYYADSVKGRFTISRDNAKNTVYLQMNSLKPDDTAVYYCAAEVVAQMNYWGQGTQVTVSS	low polyreactivity
QVQLVESGGGLVQAGGSLRLSCAASGSTSYWYAMGWYRQAPGKESELVATIRSRGGSTSYADSVKGRFTIARDNAKNTVYLQMNSLKPEDTAVNYCNTRKLYQVDYDYLGQGTQVTVSS	high polyreactivity
QVQLVESGGGLVQAGGSLRLSCAASGITFRGNAMGWYRQAPGKERELVAAISRRGGNTNYADSVKGRFTISRDNAKNTVYLQMNSLKPEDTAVYYCAADITTYRRGRYEYEYWGQGTQVTVSS	high polyreactivity
QVQLVESGGGLVQAGGSLRLSCAASGYTFSRYAMGWYRQAPGKERELVADISRSGGSTDYADSVKGRFTISRDNAKNTVYLQMNSLKPEDTAVYYCAKGSWWGYYSYGFDYWGQGTQVTVSS	high polyreactivity
QVQLVESGGGLVQAGGSLRLSCDASGNIFSDYTMGWYRQAPGKERELVAAISGDGGTTYYADSVKGRFTISRDNAKNTVYLQMNSLNPEDTAVYYCAADGYYDAYDQFFIVYYEYDYWGQGTQVTVSS	low polyreactivity
QVQLVESGGGLFQAGGSLRLRCAATGLIFDLYAMGWYRQAPGKERELVAVISYDGGSTYYADSVKGRFTISRDNAKNTVYLQMNSLKPEETAVYYCNTFDGLVSPSDLYDYWGQGTQVTVSS	low polyreactivity
QVQLVESGGGLVQAGGSLRLSCAASGISFRRYTMGSYRQAPGKERELVDTISLSDGNTYYADSVKGRFTISRDNAKNTVYLQMNSMKPEDTAVYYCNARHTWHQSYDYWGQGTQVSVSS	low polyreactivity
QVQLVESGGGLVQAGGSLRLSCAASGFTFGWNAMGWYRQAPGKERELVAAISWSGGSTYYADSVKGRFTISRDNAKNTVYLQMNSLKPEDTAVYYCAAYPAYGGDYWGQGTQVTVSS	high polyreactivity
QVQLVESGGGLVQAGGSLRLSCAASGRTFTSNAMGWYRQAPGKEREFVAAITRSTGSTNYADSVKGRFTISRDNAKNTVYLQMNSLKPEDTAVYYCNAYLYYKGRYSRQYYYWGQGTQVTVSS	high polyreactivity
QVQLVESGGGLVQAGGSLRLSCAASGRIYTMGWYRQAPGKERELVAAISKSGGSTSYADSVKGRFTISRDNAKNTVYLQMNSLKPEDTAVYYCAALHYGRYRMDYWGQGTQVTVSS	high polyreactivity
QVQLVESGGGLVQAGGSLRLSRAGCGRIFFVYAMRWYRQAPGKERELVAALSVSDVSTSYADSVKGRFTISRDNAKNTVFLQMNSLKPEDTAVYYCLAAFRFYASSRIAGEDYWGQGTQVTVSS	low polyreactivity
QVQLVESGGGLVQAGGSLRLSCAASGHTFAYNAMGWYRQAPGKEREFVAAITWSTDNTYYADSVKGRFTISRDNAKNTVYLQMNTLKPEDTAVYYCAVDVYFYYRHYGYWGQGTQVTVSS	low polyreactivity
QVQLVESGGGLVQAGGSLRLSCAASGSTFYGYTMGWSRQAPGKERELVAVITSGGSTYYADSVKGRFTISRDNAKNTVYLQMNSLKPDDTAVYYCAQRYGYPAYGRPWRIGRTYDYWGQGTQVTVSS	low polyreactivity
QVQLVESGGGLVQAGGSLRLSCAASGRTFLYVMGWNIQAPGKERELVAASSRGGSTSYADSVKGRFTISRDNAKNTVYLQMNSMKPEVTAVYYCAATNYWRDGYWGQGTQVTVSS	high polyreactivity
QVQLVESGGGLVQAGGSLRLICAASGRILYTYAMGWYRQAPGKERELVAGISRGGRTYYADSVKGRFTISRDNAKNTVYLQMNSLKPEDTAVYYCAARLQYGIQYRYDYWGQGTLVTVSS	high polyreactivity

Sequence	polyreactivity (PSR sort gate)
QVQLVESGGGLVQAGGSLRLSCAASGSIFPYYAMGWYRQAPGKERELVAAISWSGTSTYYADSLKGRFTISRDNAKNTVYLQMNSLKPEDTAVYYCAASAVGTNHYGYWNESDYWGQGTQVTVSS	low polyreactivity
QVQLVESGGGLVQAGGSLRLSCAASGSTFYKYGMGRNTQAHGKERELVAAISGSGDSTYYADSVKGRFTISRDNAKNSVYLQMNSLKPEDTAVYYCNAGPWCYLHEYDYWGQGTQVTVSS	low polyreactivity
QVQLVESGGGLVQAGCSLRLSCAASGSTFTTNAMGWYRQAPGKEREFVAAITSSGGSTYYADSVKGRFTISRDNAKNTVYLQMNSLKPEDNAVYYCNADGDPSQKLFGRSYDYWGQGTQVNVSS	low polyreactivity
QVQLVESGGGLFQAGGSLRLSCAASGSTFTTNAMGWYRQAPGKERELVAAITKRGGTTSYADSVKGRFTISRDNAKNSVYLLMNSLKPADTAVYYCAADVEVSWAYDAWWYGGGYYWGQCTQVTVSS	high polyreactivity
QVQLVESGGGLVQAGGSLRLSCAASGRIFNRYAMGWYRQAPGKEREFVARITGSGGRTYYADSVKGRFTISRDNAKNTVYLQMNSLKPEDTAVYYCARDRGYQSGYDYWGQGTQVTVSS	high polyreactivity
QVQLVESGGGLVQAGGSLGLSCAASGSTLSAYVMGWYRQAPGKEREFVAAITWSGGNTYYADSVKGRFTISRDNAKHTVYLQMNSLKPEDTAVYFCARRGYRQSGDYWGQGTQVTVSS	low polyreactivity
QFQLVESGGGLVQAGGSLRLSCAASGRIFRRYTMGWYRQAPGKERELVATITWDGVSTYYADSVKGRFTISRDNAKNTVYLQMNSLKPEDTAVYYCNVDVYYYVLSYQYDYWGQGTQVTVSS	high polyreactivity
QVHLVESGGGLVQAGGILRLSCAASGFIYTKYTMGSYRQAPGKEREMVAAITGRGTSTYADSVKGRFTISRDNAKNSVYLQMNRLKPEDTAVYYCASVGWFADFMFSDINGYYWGQGTEVTVSS	low polyreactivity
QVQLVESGGGLVQAGGSLRLSCAASGSTSQTYAMGWYRQAPGKERELVASMTRSGVRTYYADSVKGRFTISRDNAKYTVYLQMNSLKPEDTAVYYCAAKYSYGFYRTGYYWGQGTQVTVSS	high polyreactivity
QVLLVESGGALVQAGGSLRLSCAASGYIFRFYTLRGYRQAPGKERELVAAISAGGSTNSADSVKGRFTISRDNAKNTVYLQMNSLKPEDTAVEYCAARYYSRYYWGQGTQVTVSS	low polyreactivity
QVQHVESGGGLVQAGGSLRLSCAASGRILVSYAMGWYRQAPGKERELVAAISRSGGSTYYADSVKGRFTISRDNAKNTVYLQMNCLKPEDTAVYYCATGLYIQSTYHRYERYNYWGQGTQVTVSS	high polyreactivity
QVQLVESGGGLVPAGGSLRLSCAASGRTFWIYAMGWYRQAPGKERELVASIRWSTGNTNYADSVKGRFTISRDNAKNTVYLQMNSLLPEDTAVYYCNARRRWRGGPTYIYWGQGTQVTVSS	high polyreactivity
QVQLVESGGGLVQAGGSLRLSCAASGLIFGWNAMGWYRQAPGKERELVAAITWNGGSTYYADSVKGRFTISRDNAKITVSLQMNSLKPEDTAVYYCAARVGWNIRGYDYWGQGTQVTVSS	low polyreactivity
QVQLVESGGGLVQAGGSLRLSCAASGRIFPGNAMGWYRQAPGKESELVAAISKSGGSTYYADSVKGRFTISRDNAKNTVYLQMNSLKPEDTAVYYCAKLYYPVSDQYDYYYWGQGTQVTVSS	low polyreactivity
QVQLVESGGRLVQAGGSLRLSCAASGNIFYYYAMGCYTQAHGKERELVAAISADCGRTYYADSVKGRFTISRDTAKNTVYLQMNSLQPEDTAVYYWNVLGRARTQTRYNYWGQGTQVTVSS	high polyreactivity
